Patent publication US20170306033A1 (Amgen, published 2017)

Key:
human PAC1 receptor = molecular target: T1, human PAC1 receptor (human, UniProt P41586 21-468); assay: cell-based or functional assay
T1 sequence: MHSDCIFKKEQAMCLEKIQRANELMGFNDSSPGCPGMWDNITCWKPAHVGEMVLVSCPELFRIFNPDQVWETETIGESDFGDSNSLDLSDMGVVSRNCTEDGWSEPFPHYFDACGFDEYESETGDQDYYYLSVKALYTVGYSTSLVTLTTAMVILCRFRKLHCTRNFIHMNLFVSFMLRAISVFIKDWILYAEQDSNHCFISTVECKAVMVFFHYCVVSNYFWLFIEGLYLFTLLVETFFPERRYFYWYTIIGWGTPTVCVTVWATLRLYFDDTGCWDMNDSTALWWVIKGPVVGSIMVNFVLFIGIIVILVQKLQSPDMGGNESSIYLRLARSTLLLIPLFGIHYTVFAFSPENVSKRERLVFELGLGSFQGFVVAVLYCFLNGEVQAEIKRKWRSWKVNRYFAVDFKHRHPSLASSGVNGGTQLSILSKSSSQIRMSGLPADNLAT

human CGRP receptor = human CGRP receptor (human, UniProt Q16602 23-461; O60894 27-148); assay: cell-based or functional assay
Sequence of human CGRP receptor (Q16602 23-461 limits assumed, chain 1 of 2): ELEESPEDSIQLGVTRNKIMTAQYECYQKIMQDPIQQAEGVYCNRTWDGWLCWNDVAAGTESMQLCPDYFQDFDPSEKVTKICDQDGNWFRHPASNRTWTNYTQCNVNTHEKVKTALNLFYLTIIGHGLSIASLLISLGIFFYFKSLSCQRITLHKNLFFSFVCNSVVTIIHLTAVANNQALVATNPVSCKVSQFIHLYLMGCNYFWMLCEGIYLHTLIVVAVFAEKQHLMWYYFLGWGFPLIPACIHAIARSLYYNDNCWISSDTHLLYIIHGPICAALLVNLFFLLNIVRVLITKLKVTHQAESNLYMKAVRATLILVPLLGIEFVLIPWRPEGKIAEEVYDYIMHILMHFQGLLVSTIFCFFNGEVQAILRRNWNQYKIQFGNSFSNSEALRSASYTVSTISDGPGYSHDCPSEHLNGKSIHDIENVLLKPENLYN
Sequence of human CGRP receptor (O60894 27-148 limits assumed, chain 2 of 2): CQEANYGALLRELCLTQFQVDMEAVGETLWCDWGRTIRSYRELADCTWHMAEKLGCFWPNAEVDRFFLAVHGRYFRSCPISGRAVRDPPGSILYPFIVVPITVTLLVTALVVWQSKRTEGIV

| Binder | % inhibition of human PAC1 (human PAC1 receptor) | % inhibition of human CGRPR (human CGRP receptor) |
| --- | --- | --- |
| iPS:326663 (bispecific antibody, human IgG2, kappa) light 1: DIQLTQSPSFLSASVGDRVTITCRASQSIGRSLHWYQQKPGKAPKLLIKYASQSLSGVPSRFSGSGSGTEFTLTISSLQPEDFATYYCHQSSRLPFTFGPGTKVDIKRTVAAPSVFIFPPSDEQLKSGTASVVCLLNNFYPREAKVQWKVDNALQSGNSQESVTEQDSKDSTYSLESTLTLSKADYEKHKVYACEVTHQGLSSPVTKSFNRGEC heavy 1: QVQLVESGAEVVKPGASVKVSCKASGFTFSRFAMHWVRQAPGQGLEWMGVISYDGGNKYYAESVKGRVTMTRDTSTSTLYMELSSLRSEDTAVYYCARGYDVLTGYPDYWGQGTLVTVSSASTKGPSVFPLAPCSRSTSESTAALGCLVKDYFPEPVTVSWNSGALTSGVHTFPAVLQSSGLYSLKSVVTVPSSNFGTQTYTCNVDHKPSNTKVDKTVERKCCVECPPCPAPPVAGPSVFLFPPKPKDTLMISRTPEVTCVVVDVSHEDPEVQFNWYVDGVEVHNAKTKPREEQFNSTFRVVSVLTVVHQDWLNGKEYKCKVSNKGLPAPIEKTISKTKGQPREPQVYTLPPSREEMTKNQVSLTCLVDGFYPSDIAVEWESNGQPENNYDTTPPMLDSDGSFFLYSDLTVDKSRWQQGNVFSCSVMHEALHNHYTQKSLSLSPGK light 2: EIVLTQSPGTLSLSPGERATLSCRASQSVSSGYLTWYQQKPGQAPRLLIYGASSRATGIPDRFSGSGSGTDFTLTISRLEPEDFAVYYCQQYGNSLSRFGQGTKLEIKRTVAAPSVFIFPPSDEQLKSGTASVVCLLNNFYPREAKVQWKVDNALQSGNSQESVTEQDSKDSTYSLKSTLTLSKADYEKHKVYACEVTHQGLSSPVTKSFNRGEC heavy 2: QVQLVESGGGVVQPGRSLRLSCAASGFTFSSYGMHWVRQAPGKGLEWVAVIWYDGSNKYYADSVKGRFIISRDKSKNTLYLQMNSLRAEDTAVYYCARAGGIAAAGLYYYYGMDVWGQGTTVTVSSASTKGPSVFPLAPCSRSTSESTAALGCLVKDYFPEPVTVSWNSGALTSGVHTFPAVLQSSGLYSLESVVTVPSSNFGTQTYTCNVDHKPSNTKVDKTVERKCCVECPPCPAPPVAGPSVFLFPPKPKDTLMISRTPEVTCVVVDVSHEDPEVQFNWYVDGVEVHNAKTKPREEQFNSTFRVVSVLTVVHQDWLNGKEYKCKVSNKGLPAPIEKTISKTKGQPREPQVYTLPPSRKKMTKNQVSLTCLVKGFYPSDIAVEWESNGQPENNYKTTPPMLKSDGSFFLYSKLTVDKSRWQQGNVFSCSVMHEALHNHYTQKSLSLSPGK | 62% | 64% |
| iPS:327736 (bispecific antibody, human IgG1, kappa, lambda, N297G) light 1: not shown heavy 1: not shown light 2: QSVLTQPPSVSAAPGQKVTISCSGSSSNIGNNYVSWYQQLPGTAPKLLIYDNNKRPSGIPDRFSGSKSGTSATLGITGLQTGDEADYYCGTWDSRLSAVVFGKGTKLTVLGQPKANPTVTLFPPSSEELQANKATLVCLISDFYPGAVTVAWKADGSPVKAGVETTKPSKQSNNKYAAKSYLSLTPEQWKSHRSYSCQVTHEGSTVEKTVAPTECS heavy 2: QVQLVESGGGVVQPGRSLRLSCAASGFTFSSFGMHWVRQAPGKELEWVAVISFDGSIKYSVDSVKGRFTISRDNSKNTLFLQMNSLRAEDTAVYYCARDRLNYYESSGYYHYKYYGMAVWGQGTTVTVSSASTKGPSVFPLAPSSKSTSGGTAALGCLVKDYFPEPVTVSWNSGALTSGVHTFPAVLQSSGLYSLESVVTVPSSSLGTQTYICNVNHKPSNTKVDKKVEPKSCDKTHTCPPCPAPELLGGPSVFLFPPKPKDTLMISRTPEVTCVVVDVSHEDPEVKFNWYVDGVEVHNAKTKPCEEQYGSTYRCVSVLTVLHQDWLNGKEYKCKVSNKALPAPIEKTISKAKGQPREPQVYTLPPSRKEMTKNQVSLTCLVKGFYPSDIAVEWESNGQPENNYKTTPPVLKSDGSFFLYSKLTVDKSRWQQGNVFSCSVMHEALHNHYTQKSLSLSPGK | 20% | 88% |
| iPS:327727 (bispecific antibody, human IgG1, kappa, lambda, N297G) light 1: not shown heavy 1: not shown light 2: QSVLTQPPSVSAAPGQKVTISCSGSSSNIGNNYVSWYQQLPGTAPKLLIYDNNKRPSGIPDRFSGSKSGTSATLAITGLQTGDEADYYCGTWDSRLSAVVFGGGTKLTVLGQPKANPTVTLFPPSSEELQANKATLVCLISDFYPGAVTVAWKADGSPVKAGVETTKPSKQSNNKYAAKSYLSLTPEQWKSHRSYSCQVTHEGSTVEKTVAPTECS heavy 2: QVQLVESGGGVVQPGRSLRLSCAASGFTFSSFGMHWVRQAPGKGLEWVAVISFDGSIKYSVDSVKGRFTISRDNSKNTLFLQMNSLRAEDTAVYYCARDRLNYYDSSGYYHYKYYGMAVWGQGTTVTVSSASTKGPSVFPLAPSSKSTSGGTAALGCLVKDYFPEPVTVSWNSGALTSGVHTFPAVLQSSGLYSLESVVTVPSSSLGTQTYICNVNHKPSNTKVDKKVEPKSCDKTHTCPPCPAPELLGGPSVFLFPPKPKDTLMISRTPEVTCVVVDVSHEDPEVKFNWYVDGVEVHNAKTKPCEEQYGSTYRCVSVLTVLHQDWLNGKEYKCKVSNKALPAPIEKTISKAKGQPREPQVYTLPPSRKKMTKNQVSLTCLVKGFYPSDIAVEWESNGQPENNYKTTPPVLKSDGSFFLYSKLTVDKSRWQQGNVFSCSVMHEALHNHYTQKSLSLSPGK | 93% | 93% |
| iPS:327737 (bispecific antibody, human IgG1, kappa, lambda, N297G) light 1: DIQLTQSPSFLSASVGDRVTITCRASQSIGRSLHWYQQKPGKAPKLLIKYASQSLSGVPSRFSGSGSGTEFTLTISSLQPEDFATYYCHQSSRLPFTFGEGTKVDIKRTVAAPSVFIFPPSDEQLKSGTASVVCLLNNFYPREAKVQWKVDNALQSGNSQESVTEQDSKDSTYSLESTLTLSKADYEKHKVYACEVTHQGLSSPVTKSFNRGEC heavy 1: not shown light 2: QSVLTQPPSVSAAPGQKVTISCSGSSSNIGNNYVSWYQQLPGTAPKLLIYDNNKRPSGIPDRFSGSKSGTSATLGITGLQTGDEADYYCGTWDSRLSAVVFGKGTKLTVLGQPKANPTVTLFPPSSEELQANKATLVCLISDFYPGAVTVAWKADGSPVKAGVETTKPSKQSNNKYAAKSYLSLTPEQWKSHRSYSCQVTHEGSTVEKTVAPTECS heavy 2: QVQLVESGGGVVQPGRSLRLSCAASGFTFSSFGMHWVRQAPGKELEWVAVISFDGSIKYSVDSVKGRFTISRDNSKNTLFLQMNSLRAEDTAVYYCARDRLNYYESSGYYHYKYYGMAVWGQGTTVTVSSASTKGPSVFPLAPSSKSTSGGTAALGCLVKDYFPEPVTVSWNSGALTSGVHTFPAVLQSSGLYSLESVVTVPSSSLGTQTYICNVNHKPSNTKVDKKVEPKSCDKTHTCPPCPAPELLGGPSVFLFPPKPKDTLMISRTPEVTCVVVDVSHEDPEVKFNWYVDGVEVHNAKTKPCEEQYGSTYRCVSVLTVLHQDWLNGKEYKCKVSNKALPAPIEKTISKAKGQPREPQVYTLPPSRKEMTKNQVSLTCLVKGFYPSDIAVEWESNGQPENNYKTTPPVLKSDGSFFLYSKLTVDKSRWQQGNVFSCSVMHEALHNHYTQKSLSLSPGK | 54% | 82% |
| iPS:327728 (bispecific antibody, human IgG1, kappa, lambda, N297G) light 1: not shown heavy 1: not shown light 2: QSVLTQPPSVSAAPGQKVTISCSGSSSNIGNNYVSWYQQLPGTAPKLLIYDNNKRPSGIPDRFSGSKSGTSATLAITGLQTGDEADYYCGTWDSRLSAVVFGGGTKLTVLGQPKANPTVTLFPPSSEELQANKATLVCLISDFYPGAVTVAWKADGSPVKAGVETTKPSKQSNNKYAAKSYLSLTPEQWKSHRSYSCQVTHEGSTVEKTVAPTECS heavy 2: QVQLVESGGGVVQPGRSLRLSCAASGFTFSSFGMHWVRQAPGKGLEWVAVISFDGSIKYSVDSVKGRFTISRDNSKNTLFLQMNSLRAEDTAVYYCARDRLNYYDSSGYYHYKYYGMAVWGQGTTVTVSSASTKGPSVFPLAPSSKSTSGGTAALGCLVKDYFPEPVTVSWNSGALTSGVHTFPAVLQSSGLYSLESVVTVPSSSLGTQTYICNVNHKPSNTKVDKKVEPKSCDKTHTCPPCPAPELLGGPSVFLFPPKPKDTLMISRTPEVTCVVVDVSHEDPEVKFNWYVDGVEVHNAKTKPCEEQYGSTYRCVSVLTVLHQDWLNGKEYKCKVSNKALPAPIEKTISKAKGQPREPQVYTLPPSRKKMTKNQVSLTCLVKGFYPSDIAVEWESNGQPENNYKTTPPVLKSDGSFFLYSKLTVDKSRWQQGNVFSCSVMHEALHNHYTQKSLSLSPGK | 79% | 80% |
| iPS:327738 (bispecific antibody, human IgG1, kappa, lambda, N297G) light 1: EIVLTQSPATLSLSPGERATLSCRASQSVGRSLHWYQQKPGQAPRLLIKYASQSLSGIPARFSGSGSGTDFTLTISSLEPEDFAVYYCHQSSRLPFTFGEGTKVDIKRTVAAPSVFIFPPSDEQLKSGTASVVCLLNNFYPREAKVQWKVDNALQSGNSQESVTEQDSKDSTYSLESTLTLSKADYEKHKVYACEVTHQGLSSPVTKSFNRGEC heavy 1: not shown light 2: QSVLTQPPSVSAAPGQKVTISCSGSSSNIGNNYVSWYQQLPGTAPKLLIYDNNKRPSGIPDRFSGSKSGTSATLGITGLQTGDEADYYCGTWDSRLSAVVFGKGTKLTVLGQPKANPTVTLFPPSSEELQANKATLVCLISDFYPGAVTVAWKADGSPVKAGVETTKPSKQSNNKYAAKSYLSLTPEQWKSHRSYSCQVTHEGSTVEKTVAPTECS heavy 2: QVQLVESGGGVVQPGRSLRLSCAASGFTFSSFGMHWVRQAPGKELEWVAVISFDGSIKYSVDSVKGRFTISRDNSKNTLFLQMNSLRAEDTAVYYCARDRLNYYESSGYYHYKYYGMAVWGQGTTVTVSSASTKGPSVFPLAPSSKSTSGGTAALGCLVKDYFPEPVTVSWNSGALTSGVHTFPAVLQSSGLYSLESVVTVPSSSLGTQTYICNVNHKPSNTKVDKKVEPKSCDKTHTCPPCPAPELLGGPSVFLFPPKPKDTLMISRTPEVTCVVVDVSHEDPEVKFNWYVDGVEVHNAKTKPCEEQYGSTYRCVSVLTVLHQDWLNGKEYKCKVSNKALPAPIEKTISKAKGQPREPQVYTLPPSRKEMTKNQVSLTCLVKGFYPSDIAVEWESNGQPENNYKTTPPVLKSDGSFFLYSKLTVDKSRWQQGNVFSCSVMHEALHNHYTQKSLSLSPGK | 93% | 85% |
